# From patent US20150335719A1, “Intravitreal Injection of a Chimeric Phage Endolysin Ply187; Protection from Staphylococcus aureus Endophthalmitis” (priority 2014, published 2015)
# B1: Ply187AN-KSH3b: staphylococcal peptidoglycan hydrolase fusion protein: endopeptidase domain of prophage endolysin Ply187 plus SH3b cell wall-binding domain of phage K endolysin LysK (SEQ ID NO:1) (protein)
# chain: MALPKTGKPTAKQVVDWAINLIGSGVDVDGYYGRQCWDLPNYIFNRYWNFKTPGNARDMAWYRYPEGFKVFRNTSDFVPKPGDIAVWTGGNYNWNTWGHTGIVVGPSTKSYFYSVDQNWNNSNSYVGSPAAKIKHSYFGVTHFVRPAYKAEPKPTPPLESTPATRPVTGSWKKNQYGTWYKPENATFVNGNQPIVTRIGSPFLNAPVGGNLPAGATIVYDEVCIQAGHIWIGYNAYNGNRVYCPVRTCQGVPPNQIPGVAWGVFKVEHHHHHH
# modifications: Chemically Synthesized Fusion Protein
# How the values were obtained:
# [1] = system: S. aureus RN6390 endophthalmitis; assay: Mouse S. aureus endophthalmitis: clinical score and slit lamp microscopy; format: in vivo, C57BL/6 mice; details: for mean clinical score: scored after 24 h, scale 0 to 4
# Method: FIGS. 3A-3E show the effects of intravitreal injection of chimeric Ply187AN-KSH3b on the severity of S. aureus endophthalmitis. The eyes (n=10) of C57BL/6 mice were infected with S. aureus strain RN6390 and following either 6 h or 12 h post-infection, Ply187AN-KSH3b or EB (EB C) was administered by intravitreal injection. FIG. 3A depicts individual eyes assigned clinical scores (range 0 to 4; black dots represent an eye) and presented as mean clinical scores (bar with SEM). […] FIG. 3E depicts the total number of dead cells in the retinal sections that were counted and are presented as mean±SD of the TUNEL positive cells. A student's t test (**, p<0.005) was used for the statistical analysis and comparisons were made between the S. aureus (SA) control, SA+EBC, and SA+Ply187AN-KSH3b-treated group.
# The eyes of C57BL/6 mice (female, 8 week old) were intravitreally injected with 1 μl of PBS containing 5000 colony forming units (CFU) of S. aureus RN6390 to induce endophthalmitis as described previously (Kumar et al., supra). The chimeric Ply187AN-KSH3b (1 μg/μl) treatment in EB was given after 6 h (group I) or 12 h (group II) post infection. In the control group, the eyes were treated with EB (EB C). The eye infected with S. aureus without any treatment was used as a disease control. Clinical examinations were performed using slit lamp microscopy. The ocular disease was graded, and clinical scores from 0 to 4.0 were assigned using the previously described scale (Whiston et al., supra; Ramadan et al. 2006. Curr. Eye Res. 31:955-965). The clinical score of 4 is considered as 100 percent damage. Based on this, the percent damage and percent retention of eyes were calculated in both Ply187AN-KSH3b-treated vs untreated S. aureus infected eyes. Mice were treated in compliance with the ARVO Statement for the Use of Animals in Ophthalmic and Vision Research and all procedures were approved by the Institutional Animal Care and Use Committee (IACUC) of Wayne State University.
# We hypothesized that similar to antibiotics, chimeric Ply187AN-KSH3b would have beneficial effects in protecting the eyes from endophthalmitis. To test this hypothesis, we used a C57BL/6 mouse model of S. aureus endophthalmitis. Chimeric Ply187AN-KSH3b was administrated intravitreally (1 μg/eye in 1 μl volume of EB) 6 h and 12 h after bacterial infection. Eyes without any treatment or eyes injected with EB served as controls. After 24 h, each infected eye was assigned a clinical score.
# [2] = system: S. aureus strain RN6390; assay: Inoculum effect study in vitro; format: cell-based, Staphylococcus aureus; details: dilutions 1:10,000 to 1:10, 1 h at MIC
# From the text: FIGS. 4 A, B and C depict the effect of chimeric Ply187AN-KSH3b on bacterial growth in vivo and in the vitreous humor (VH) in vitro and with increasing inoculums in vitro respectively. […] Twenty-four hours after the treatment, the eyes were enucleated, homogenized and the bacterial burden was estimated via serial dilution plating. FIG. 4B depicts a test showing the effect of the vitreous humor on Ply187AN-KSH3b antimicrobial activity where Ply187AN-KSH3b was mixed with calf vitreous humor and inoculated with 10^5 CFU of S. aureus. The survival of the bacteria was enumerated by CFU count at 2, 4 and 6 h of incubation. Statistical analysis was performed using unpaired student's t test (*, p<0.05; **, p<0.005; ***, p<0.0005). […] An increasing number of dilutions (1:10,000 to 1:10) of logarithmic phase of S. aureus (RN6390 strain) were treated with Ply187AN-KSH3b for 1 h followed by CFU enumeration on TSA plates. Statistical analysis was performed using unpaired student's t test (*, p<0.05; **, p<0.005; ***, p<0.0005).
# To determine the effect of Vitreous Humor (VH) on antimicrobial activity of chimeric Ply187AN-KSH3b in vitro, bacteria (10^5 CFU) were incubated with chimeric Ply187AN-KSH3b in the presence of calf VH. Following incubation at 37° C. for the desired time, bacterial growth in VH was enumerated by serial dilution plating. […]
molecule,measurement,setting,value
B1,slit lamp microscopy appearance of eyes,[1]; 1 μg/eye intravitreal,clear/transparent corneas and/or anterior chambers
same,mean clinical score,"[1]; treatment 6 h post infection, 1 μg/eye intravitreal",0.2
same,mean clinical score,"[1]; treatment 12 h post infection, 1 μg/eye intravitreal",0.3
same,retention of eyes (conversion of clinical scores),"[1]; treatment group, clinical score 4 = 100 percent damage",90-95%
same,activity with increasing bacterial numbers,[2],no reduction in Ply187AN-KSH3b activity
